Consider one substance from US20150100046A1, “INTRAOCULAR DRUG DELIVERY DEVICE AND ASSOCIATED METHODS” (priority 2013, published 2015).

The data set can be described thus: Ocular tissue drug concentration by ELISA after implantation of loaded intraocular device. The class given is in vivo, New Zealand white rabbits. The following applies: intraocular device loaded with Avastin implanted in lens capsule after lens extraction, 1 week post implantation. An excerpt: Three intraocular devices were implanted into eyes of New Zealand white rabbits under general anesthesia after lens extraction (phacoemulsification technique). Two of the devices were loaded with Avastin® (bevacizumab) and one was loaded with the contrast agent gadolinium-labeled albumin (Galbumin™) as a control. Proper intraocular device position was verified by MRI as well as clinical examination.
The rabbits were sacrificed and the eyes are removed and assayed after 1 week post implantation. Bevacizumab (Avastin®) was detected by ELISA in the retina and vitreous at concentrations of 24-48 mcg/mL, and was not present in the control rabbit eye.
(In general: An ELISA detects its analyte on a solid surface through an enzyme-linked reagent.)

As to bevacizumab [Bevacizumab (Avastin®)], the “concentration detected by ELISA in the retina and vitreous” value lay in the range of 24 to 48 µg/mL.
